Reference: patent US20080159989A1

Target: Nodal (mouse) (UniProt P43021)

% of beating EB (Cripto-/- ES cells transfected with Cerberus, EBs treated with recombinant Cripto) (% of beating EB)	% of beating EB (Cripto-/- ES cells transfected with Cerberus-S, EBs treated with recombinant Cripto) (% of beating EB)	Substance
10.3		Cerberus
	8.3	Cerberus-Short (CerS)
